Data published in paper PMC7376022, “ARHGAP10, which encodes Rho GTPase-activating protein 10, is a novel gene for schizophrenia risk” (Translational Psychiatry, 2020).

Biological target: T1, GST-RhoA (p.Q63L) (UniProt P61586 1-193, p.Q63L)
T1 construct: RhoA, small GTPase, constitutively active mutant Q63L; also called GST-RhoA (Q63L); constitutively active RhoA; source: expressed in HEK293 cells
Experiment: pull-down; GST binding assay; GST-RhoA proteins as bait, GFP-tagged ARHGAP10 as prey; input and bound proteins on immunoblots, densitometry with Odyssey Clx; three independent experiments

T1 sequence (P61586 whole entry Q63L): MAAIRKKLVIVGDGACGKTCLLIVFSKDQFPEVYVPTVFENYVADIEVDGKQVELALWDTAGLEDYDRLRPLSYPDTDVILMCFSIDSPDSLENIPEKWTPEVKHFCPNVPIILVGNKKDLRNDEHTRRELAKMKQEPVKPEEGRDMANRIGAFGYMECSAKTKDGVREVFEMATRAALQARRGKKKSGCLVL

B1: GFP-tagged human ARHGAP10 (p.S490P) mutant (natural protein, UniProt A1A4S6 1-786, looked up)
chain: MGLQPLEFSDCYLDSPWFRERIRAHEAELERTNKFIKELIKDGKNLIAATKSLSVAQRKFAHSLRDFKFEFIGDAVTDDERCIDASLREFSNFLKNLEEQREIMALSVTETLIKPLEKFRKEQLGAVKEEKKKFDKETEKNYSLIDKHLNLSAKKKDSHLQEADIQVEQNRQHFYELSLEYVCKLQEIQERKKFEFVEPMLSFFQGMFTFYHQGHELAKDFNHYKMELQINIQNTRNRFEGTRSEVEELMNKIRQNPKDHKRASQFTAEGYLYVQEKRPAPFGSSWVKHYCMYRKAAKKFNMIPFEHRSGGKLGDGEVFFLKECTKRHTDSIDRRFCFDIEAADRPGVSLTMQAFSEEERKQWLEALGGKEALSHSFNTAIIPRPEGNAQLDKMGFTIIRKCISAVETRGINDQGLYRVVGVSSKVQRLLSMLMDVKTCNEVDLENSADWEVKTITSALKQYLRSLPEPLMTYELHGDFIVPAKSGSPEPRVNAIHFLVHKLPEKNKEMLDILVKHLTNVSNHSKQNLMTVANLGVVFGPTLMRPQEETVAALMDLKFQNIVVEILIENHEKIFRTPPDTTFPEPTCLSASPPNAPPRQSKRQGQRTKRPVAVYNLCLELEDGDNPYPSKEDTPTSSLDSLSSPSPVTTAVPGPPGPDKNHLLADGGSFGDWASTIPGQTRSSMVQWLNPQSPTTTSSNSAVTPLSPGSSPFPFSPPATVADKPPESIRSRKARAVYPCEAEHSSELSFEIGAIFEDVQTSREPGWLEGTLNGKRGLIPQNYVKLL
notes: also called ARHGAP10 (p.S490P)-GFP; source: expressed in HEK293 cells
band intensity percentage relative to the corresponding bait: 15.8%
